Test results: patent US20110117113A1, “IMMUNOGLOBULIN SINGLE VARIABLE DOMAIN DIRECTED AGAINST HUMAN CXCR4 AND OTHER CELL ASSOCIATED PROTEINS AND METHODS TO GENERATE THEM” (priority 2009, published 2011)
Numbering of substitutions follows the chain as printed.

B1: Nanobody 238D4 (VHH)
VHH: EVQLMESGGGLVQAGGSLRLSCAASGRTFNNYAMGWFRRAPGKEREFVAAITRSGVRSGVSAIYGDSVKDRFTISRDNAKNTLYLQMNSLKPEDTAVYTCAASAIGSGALRRFEYDYSGQGTQVTVSS
B2: 238D2: monovalent anti CXCR4 Nanobody, SEQ ID NO: 2 (protein)
VHH: EVQLVESGGGLVQTGGSLRLSCAASGFTFSSYAMSWVRQAPGKGLEWVSGIKSSGDSTRYAGSVKGRFTISRDNAKNMLYLQMYSLKPEDTAVYYCAKSRVSRTGLYTYDNRGQGTQVTVSS
modifications: Nanobody

Assays:
[1] = molecular target: T1, wildtype human CXCR4 (pcDNA3.1-CXCR4, expressed in HEK293T) (human, UniProt P61073 1-352); assay: competition with [125I]-238D4, HEK293T-CXCR4 membranes
T1 construct: whole, on cells; also called hCXCR4; HEK293T CXCR4

[2] = molecular target: CXCR4 mutation library clone 1129 (F189V) (human, UniProt P61073 1-352); assay: immunofluorescence on HEK-293T expressing the clone, normalised to wild type
[3] = molecular target: T2, CXCR4 mutation library clone 465 (F189L, S319P, V155E) (human, UniProt P61073 1-352); assay: as above
T2 chain: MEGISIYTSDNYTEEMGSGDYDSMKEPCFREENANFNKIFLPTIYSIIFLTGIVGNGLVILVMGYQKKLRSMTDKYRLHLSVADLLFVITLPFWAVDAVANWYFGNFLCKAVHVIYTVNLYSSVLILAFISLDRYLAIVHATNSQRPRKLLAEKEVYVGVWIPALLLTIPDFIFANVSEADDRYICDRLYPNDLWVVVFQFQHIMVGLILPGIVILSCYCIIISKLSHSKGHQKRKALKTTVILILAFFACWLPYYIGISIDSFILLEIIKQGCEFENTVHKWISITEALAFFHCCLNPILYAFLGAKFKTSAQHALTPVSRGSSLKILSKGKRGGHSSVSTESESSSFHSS

[4] = molecular target: CXCR4 mutation library clone 3630 (W195R) (human, UniProt P61073 1-352); assay: as above
[5] = molecular target: T3, CXCR4 mutation library clone 3728 (D187A, Y157C) (human, UniProt P61073 1-352); assay: as above
T3 chain: T2 chain with E155V, Y157C, D187A, L189F, P319S

[6] = molecular target: CXCR4 mutation library clone 3622 (E277G) (human, UniProt P61073 1-352); assay: as above
[7] = molecular target: T1, wildtype human CXCR4 (pcDNA3.1-CXCR4, …); assay: competition with [125I]-238D2, HEK293T-CXCR4 membranes
[8] = molecular target: all CXCR4 library clones containing a mutation at E179; assay: immunofluorescence, average over all clones with a mutation at E179
wildtype human CXCR4 = molecular target: T4, wildtype human CXCR4 (Homo sapiens, UniProt P61073); assay: Footprint assay, flow cytometry binding to wildtype human CXCR4 on Hek293T cells; details: Myc-tag detection, 10 nM and 100 nM Nanobody, average n = 3, wild type used for normalization
T4 construct: expressed in transfected cells; host or cells: Hek293T, transient, pcDNA3.1
Description: (§1) Based on the data from example 1.8, we introduced 3 single point-mutations in ECL2 of CXCR4 that allowed to discriminate between 238D2 and 238D4-like epitopes: V196E (specifically disturbing D2 binding)-SEQ ID NO: 20, D187V (specifically disturbing D4 binding)-SEQ ID NO: 21, F189V (disturbing binding of both D2 and D4)-SEQ ID NO: 19. […] For the epitope mapping, transient transfections of the three CXCR4 mutants and wildtype human CXCR4 in the pcDNA3.1 vector were done in Hek293T cells, after which Nanobody binding of different families was assessed by flow cytometry using detection of the Myc-tag, followed by secondary anti-mouse PE. Two concentrations of Nanobody were tested, 10 nM and 100 nM, and experiment was repeated with essentially the same results. Binding of the Nanobodies to HEK293T hCXCR4 cells was used for normalization using the following formulas:
(§2) Percentage of binding to the mutant receptors was calculated for each Nanobody concentration, and a position was considered as critical when less than 25% residual binding (average of n=3) was observed (Table C-5). […] Nanobodies could be grouped according to their different binding patterns, not only in “238D2-like” or “epitope A binders” and “238D4-like” or “epitope B binders” but also into other new groups.

CXCR4 mutant 3 (D187V) = molecular target: T5, CXCR4 mutant 3 (D187V) (Homo sapiens, UniProt P61073, D187V); assay: Footprint assay, flow cytometry binding to CXCR4 D187V on Hek293T cells; details: Myc-tag detection, 10 nM and 100 nM Nanobody, average n = 3, relative to hCXCR4
T5 construct: expressed in transfected cells; host or cells: Hek293T, transient, pcDNA3.1
Description: as §1, §2

CXCR4 (N119A) = molecular target: T6, CXCR4 (N119A) (Homo sapiens, UniProt P61073, N119A); assay: Basal inositol phosphate accumulation in HEK293T cells transiently expressing CXCR4 (N119A); assay type: cell-based; details: ligand-induced alteration of basal inositol phosphate accumulation
T6 construct: expressed in transfected cells; host or cells: HEK293T, transient; membranes in A4, whole cells in A5
Description: The functional profile of monovalent Nanobodies 238D2 and 238D4 as well as their bivalent fusion products L3 and L8 on CXCR4 (N119A) were investigated by measurement of the ligand-induced alteration of the basal inositol phosphate accumulation. HEK293T cells transiently expressing CXCR4 (N119A) show a 3-8 times higher basal rate of inositol phosphate accumulation compared to wild type CXCR4 or mock (which are virtually at the same level). […] The nanobody-induced reduction of basal inositol phosphate accumulation was antagonized by the selective neutral CXCR4 antagonist plerixafor confirming that the observed […] effects are mediated via CXCR4 (N119A).

T1 sequence (P61073 whole entry): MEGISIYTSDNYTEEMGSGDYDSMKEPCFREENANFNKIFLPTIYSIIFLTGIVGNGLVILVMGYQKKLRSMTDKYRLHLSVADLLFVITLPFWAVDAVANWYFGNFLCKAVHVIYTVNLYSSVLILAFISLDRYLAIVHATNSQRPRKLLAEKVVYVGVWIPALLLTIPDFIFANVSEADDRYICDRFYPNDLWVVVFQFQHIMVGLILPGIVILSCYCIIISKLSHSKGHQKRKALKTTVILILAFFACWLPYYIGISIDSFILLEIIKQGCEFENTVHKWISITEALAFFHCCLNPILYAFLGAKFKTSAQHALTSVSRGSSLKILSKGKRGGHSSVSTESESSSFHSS
T4 sequence (P61073 whole entry): as above
T6 sequence (P61073 whole entry N119A): as the sequence (P61073 whole entry) above, with N119A counted along it
T5 sequence (P61073 whole entry D187V): as the sequence (P61073 whole entry) above, with D187V counted along it

Molecule | pKi [1] | % immunofluorescence [2] | % immunofluorescence [3] | % immunofluorescence [4] | % immunofluorescence [5] | % immunofluorescence [6] | pKi [7] | average nanobody reactivity [8] | HEK293T CXCR4 binding (wildtype human CXCR4) | HEK293T D187V binding (CXCR4 mutant 3 (D187V)) | functional profile on CXCR4 (N119A) (in words) (CXCR4 (N119A))
B1 | 8.55 pKi | 5.2% | 12.2% | 58.8% | -16.4% | 52.5% | 8.8 pKi | 13.8% |  |  | 
B2 |  |  |  |  |  |  |  |  | + (>75% binding to mutant rel. to hCXCR4) | + (>75% binding to mutant rel. to hCXCR4) | Only antagonistic but no significant inverse agonistic activities
